Results reported in US20190065668.

Target: fluorogenic KAHRP PEXEL peptide DABCYL-…-E-EDANS

Row | Protein | Km | cleavage of the fluorogenic peptide
1 | recombinant P. vivax plasmepsin V (residues R35-R476), N-terminal fusion tag removed with TEV protease (protein) GTRSESTEGHSKDLLYKYKLYGDIDEYAYYFLDIDIGTPEQRISLILDTGSSSLSFPCAGCKNCGVHMENPFNLNNSKTSSILYCENEECPFKLNCVKGKCEYMQSYCEGSQISGFYFSDVVSVVSYNNERVTFRKLMGCHMHEESLFLYQQATGVLGMSLSKPQGIPTFVNLLFDNAPQLKQVFTICISENGGELIAGGYDPAYIVRRGGSKSVSGQGSGPVSESLSESGEDPQVALREAEKVVWENVTRKYYYYIKVRGLDMFGTNMMSSSKGLEMLVDSGSTFTHIPEDLYNKLNYFFDILCIQDMNNAYDVNKRLKMTNESFNNPLVQFDDFRKSLKSIIAKENMCVKIVDGVQCWKYLEGLPDLFVTLSNNYKMKWQPHSYLYKKESFWCKGIEKQVNNKPILGLTFFKNRQVIFDIQKNRIGFVDANCPSHPTHTRPR | 20.2 µM and 6.0 µM for the P. falciparum and P. vivax enzymes, respectively | demonstrated specific activity against the PEXEL substrates and cleaved the peptides after the P1 Leucine residue as expected
2 | recombinant P. falciparum plasmepsin V (residues N80-R528) (protein) NASSDLYKYKLYGDIDEYAYYFLDIDIGKPSQRISLILDTGSSSLSFPCNGCKDCGIHMEKPYNLNYSKTSSILYCNKSNCPYGLKCVGNKCEYLQSYCEGSQIYGFYFSDIVTLPSYNNKNKISFEKLMGCHMHEESLFLHQQATGVLGFSLTKPNGVPTFVDLLFKHTPSLKPIYSICVSEHGGELIIGGYEPDYFLSNQKEKQKMDKSDNNSSNKGNVSIKLKNNDKNDDEENNSKDVIVSNNVEDIVWQAITRKYYYYIKIYGLDLYGTNIMDKKELDMLVDSGSTFTHIPENIYNQINYYLDILCIHDMTNIYEINKRLKLTNESLNKPLVYFEDFKTALKNIIQNENLCIKIVDGVQCWKSLENLPNLYITLSNNYKMIWKPSSYLYKKESFWCKGLEKQVNNKPILGLTFFKNKQVIFDLQQNQIAFIESKCPSNLTSSRPR | 20.2 µM and 6.0 µM for the P. falciparum and P. vivax enzymes, respectively | demonstrated specific activity against the PEXEL substrates and cleaved the peptides after the P1 Leucine residue as expected
